# In article PMC8265312:
# Key:
# [1] = target: recombinant human GAPDH (human) (UniProt P04406); experiment: SPR
# [2] = target: endogenous huGAPDH on the surface of dying A549 cells (human (endogenous in A549)) (UniProt P04406); experiment: competition of binding to cells, cell-bound PspA detected by immunoblot
substance,measurement,setting,value
recombinant His-tagged PspA (pneumococcal surface protein A) composed of the αHD and PRD (domain or fragment),Kd,[1],2950 nM
same,percent reduction of cell-bound PspA by GAPDH70,[2],50%
